Experiments:
[1] = biological target: T1, human IL-33 (R&D Systems, # 3625-IL-010/CF) (human, UniProt O95760 112-270, biotinylated in the blocking ELISA of Example 3 (sites not given)); assay: cell-based or functional assay
T1 sequence (looked up): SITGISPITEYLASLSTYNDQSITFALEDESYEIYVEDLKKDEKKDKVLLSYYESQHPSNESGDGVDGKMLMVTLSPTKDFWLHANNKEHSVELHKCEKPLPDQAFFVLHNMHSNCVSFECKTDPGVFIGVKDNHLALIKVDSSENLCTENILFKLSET

[2] = biological target: T2, monkey IL-33 expressed with C-terminal hexahistidine tag (MfIL-33-6His) (cynomolgus monkey (M. fascicularis)); assay: SPR (Biacore T-200), 25 C; Fc fusion captured by anti-Fc antibody, MfIL-33-6His injected
T2 construct: also called M. fascicularis IL-33-6His; cynomolgus monkey IL-33
T2 chain: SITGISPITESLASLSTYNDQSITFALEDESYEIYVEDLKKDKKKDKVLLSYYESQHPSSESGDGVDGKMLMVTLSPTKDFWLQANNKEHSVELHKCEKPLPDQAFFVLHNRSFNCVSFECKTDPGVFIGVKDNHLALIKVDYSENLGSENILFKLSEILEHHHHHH
Description: (§1) The Biacore sensor surface was first derivatized by amine coupling a polyclonal rabbit anti-mouse antibody (GE, # BR-1008-38) or with a monoclonal mouse anti-human Fc antibody (GE, # BR-1008-39) to capture IL-33 Trap and receptor proteins with a C-terminal mouse IgG2a Fc tag or a C-terminal human IgG1 Fc tag, respectively. Kinetic experiments were carried out in 0.01 M HEPES pH 7.4, 0.15 M NaCl, 3 mM EDTA, and 0.005% v/v Surfactant Tween-20 (HBST running buffer). Different concentrations of human IL-33, mouse IL-33 or MfIL-33-6His prepared in HBST running buffer (ranging from 60 nM to 27.4 pM, 3-fold dilutions, for Trap proteins and ranging from 60 nM to 0.25 nM, 3-fold dilutions, for ST2 receptor proteins) were injected over the captured IL-33 Trap and receptor protein surfaces at a flow rate of 50 μL/minute. Association of different IL-33 proteins to the different capture surfaces was monitored for 7 minutes for Trap proteins or 4 minutes for ST2 receptor proteins and their dissociation in HBST running buffer was monitored for 14 minutes for Trap proteins or 8 minutes for ST2 receptor proteins. Kinetic association (ka) and dissociation (kd) rate constants were determined by fitting the real-time binding sensorgrams to a 1:1 binding model using Scrubber 2.0c curve-fitting software. Binding dissociation equilibrium constants (KD) and dissociative half-lives (t½) were calculated from the kinetic rate constants as: […]

[3] = biological target: T1, human IL-33 (R&D Systems, # …); assay: SPR (Biacore T-200), 37 C; Fc fusion captured by anti-Fc antibody, IL-33 injected
Description: as §1

[4] = biological target: T2, monkey IL-33 expressed with C-terminal …; assay: cell-based or functional assay
[5] = biological target: T1, human IL-33 (R&D Systems, # …); assay: cell-based or functional assay; remark: listed apart in the source
[6] = biological target: T1, human IL-33 (R&D Systems, # …); assay: SPR (Biacore T-200), 25 C; Fc fusion captured by anti-Fc antibody, IL-33 injected
Description: as §1

B1: hST2-hIL1RAcP-mFc (Fc fusion)
chain: KFSKQSWGLENEALIVRCPRQGKPSYTVDWYYSQTNKSIPTQERNRVFASGQLLKFLPAAVADSGIYTCIVRSPTFNRTGYANVTIYKKQSDCNVPDYLMYSTVSGSEKNSKIYCPTIDLYNWTAPLEWFKNCQALQGSRYRAHKSFLVIDNVMTEDAGDYTCKFIHNENGANYSVTATRSFTVKDEQGFSLFPVIGAPAQNEIKEVEIGKNANLTCSACFGKGTQFLAAVLWQLNGTKITDFGEPRIQQEEGQNQSFSNGLACLDMVLRIADVKEEDLLLQYDCLALNLHGLRRHTVRLSRKNPIDHHSSERCDDWGLDTMRQIQVFEDEPARIKCPLFEHFLKFNYSTAHSAGLTLIWYWTRQDRDLEEPINFRLPENRISKEKDVLWFRPTLLNDTGNYTCMLRNTTYCSKVAFPLEVVQKDSCFNSPMKLPVHKLYIEYGIQRITCPNVDGYFPSSVKPTITWYMGCYKIQNFNNVIPEGMNLSFLIALISNNGNYTCVVTYPENGRTFHLTRTLTVKVVGSPKNAVPPVIHSPNDHVVYEKEPGEELLIPCTVYFSFLMDSRNEVWWTIDGKKPDDITIDVTINESISHSRTEDETRTQILSIKKVTSEDLKRSYVCHARSAKGEVAKAAKVKQKVPAPRYTVESGEPRGPTIKPCPPCKCPAPNLLGGPSVFIFPPKIKDVLMISLSPIVTCVVVDVSEDDPDVQISWFVNNVEVHTAQTQTHREDYNSTLRVVSALPIQHQDWMSGKEFKCKVNNKDLPAPIERTISKPKGSVRAPQVYVLPPPEEEMTKKQVTLTCMVTDFMPEDIYVEWTNNGKTELNYKNTEPVLDSDGSYFMYSKLRVEKKNWVERNSYSCSVVHEGLHNHHTTKSFSRTPGK
notes: also called third IL-33 antagonist; human IL-33 Trap
IC50 (M), blocking of IL-33 induced IFN-gamma release from human PBMC, donor 634966 [1]: 2.13e-12 M | IC50 (M), blocking of IL-33 induced IFN-gamma release from human PBMC, donor 655681 [1]: 4.59e-11 M | IC50 (M), blocking of IL-33 induced IFN-gamma release from human PBMC, donor 655682 [1]: 3.97e-12 M | IC50 (M), blocking of IL-33 induced IFN-gamma release from human PBMC, donor 655684 [1]: 6.79e-11 M | IC50 (M), blocking of IL-33 induced IFN-gamma release from human PBMC, donor 698842 [1]: 7.39e-11 M | IC50 (M), blocking of IL-33 induced IFN-gamma release from human PBMC, donor 698843 [1]: 1.73e-11 M | IC50 (M), blocking of IL-33 induced IFN-gamma release from human PBMC, donor 727054 [1]: 3.34e-10 M | IC50 (M), blocking of IL-33 induced IFN-gamma release from human PBMC, donor 727055 [1]: 1.23e-10 M | 60 nM Monkey IL-33 Bound (RU) [2]: 28 RU | Kd [2]: 0.00313 nM | koff [2]: 4.09e-05 s⁻¹ | kon [2]: 1.31e+07 M⁻¹ s⁻¹ | t1/2 [2]: 4.7 h | 60 nM Human IL-33 Bound (RU) [3]: 28 RU | Kd [3]: 0.00111 nM | koff [3]: 2.02e-05 s⁻¹ | kon [3]: 1.82e+07 M⁻¹ s⁻¹ | t1/2 [3]: 9.55 h | IC50 (M), inhibition of 3 pM monkey IL-33 activation of HEK293/hST2/NFkB-luciferase cells [4]: 4.7e-11 M | IC50 (M), inhibition of 5 pM monkey IL-33 activation of HEK293/hST2/NFkB-luciferase cells [4]: 1.3e-12 M | IC50 (M), inhibition of 5 pM human IL-33 activation of HEK293/hST2/NFkB-luciferase cells [5]: 1.3e-12 M | IC50 (M), inhibition of 20 pM human IL-33 activation of HEK293/hST2/NFkB-luciferase cells [5]: 1.3e-11 M | 60 nM Human IL-33 Bound (RU) [6]: 28 RU | Kd [6]: 0.00329 nM | koff [6]: 6.32e-05 s⁻¹ | kon [6]: 1.92e+07 M⁻¹ s⁻¹ | t1/2 [6]: 3.05 h

From patent US20170204158A1 (Regeneron, published 2017)
